In US20160279204A1, “PEPTIDES AND PHARMACEUTICAL COMPOSITIONS FOR USE IN THE TREATMENT BY NASAL ADMINISTRATION OF PATIENTS SUFFERING FROM ANXIETY AND SLEEP DISORDERS” (MAX-PLANCK-GESELLSCHAFT ZUR FÖRDERUNG DER WISSENSCHAFT E.V., priority 2011, published 2016):
Entries after “also recorded” stand apart in the source; their conditions may differ. No end group written: not given here.

Key:
[1] = test system: evoked neuronal activity flow from the dentate gyrus to area CA1; test: Voltage-sensitive dye imaging (VSDI) in VH slices; set-up: species or system mouse; settings: (R)-SHA 68 10 μM, pretreatment 15 min, NPS 1 μM
Protocol: According to Maggio and Segal (2007) and Fanselow and Dong (2010), VSDI experiments were conducted in the VH. Horizontal brain slices (350 μm-thick) were prepared as described in Refojo et al., 2011 and/or von Wolff et al., 2011). Only the first two slices from the ventral surface of the brain in which the CA1 region was clearly visible were used for the measurements. Staining of slices with the voltage-sensitive dye Di-4-ANEPPS and VSDI were carried out at room temperature (23-25° C.). For staining, slices were kept for 15 min in carbogenated (95% O2/5% CO2) ACSF containing Di-4-ANEPPS (7.5 μg/mL; <0.1% DMSO). The ACSF (pH 7.4) consisted of (in mM): 125 NaCl, 2.5 KCl, 25 NaHCO3, 1.25 NaH2PO4, 2 CaCl2, 1 MgCl2, and 25 glucose. Afterwards, slices were stored for at least 30 min in pure carbogenated ACSF. In the recording chamber, slices were continuously superfused with carbogenated ACSF (3 mL/min flow rate). VSDI and data analysis were performed using the MiCAM02 hard- and software package (BrainVision, Tokyo, Japan). The tandem-lens fluorescence microscope was equipped with the MiCAM02-HR camera and the 2× and 1× lens at the objective and condensing side, respectively. Acquisition settings were: 88×60 pixels frame size, 36.4×40.0 μm pixel size, and 2.2 ms sampling time. To reduce noise, four acquisitions subsequently recorded at intervals of 5 s were averaged. Neuronal activity was evoked by square pulse electrical stimuli (200 μs, 15-20 V) delivered to the dentate gyrus granule cell layer via a custom-made monopolar tungsten electrode (Teflon-insulated to the tip of 75 μm diameter). From recorded signals, the fractional change in fluorescence (ΔF/F) was calculated. For all quantifications, ΔF/F values were spatially and temporally smoothed using a 3×3×3 average filter. VSDI signals presented in images were smoothed with a 5×5×3 average filter. Pixelation of images was reduced by the interpolation function of the MiCAM02 software. […]

[2] = test system: evoked neuronal activity flow from the dentate gyrus to area CA1; settings: Refojo et al., 2011, von Wolff et al.; cited from earlier work
[3] = test system: NPS target cells in the murine brain; settings: mouse, in vivo
Protocol: The mice were sacrificed 30 min post-injection.
Immunohistochemistry was performed on free-floating cryosections (40 μm).

EGFP-NPSR = test: Cy3-NPS uptake in HEK cells transiently transfected with EGFP-NPSR; type: cell-based
Description: In view of the fact that the NPSR is reported to be the only receptor mediating NPS effects (Duangdao et al., 2009) it may be concluded that the intracellular uptake of Cy3-NPS observed here also in vivo (FIGS. 1A-1D and FIG. 7A) likewise depends on the NPSR.

ventral hippocampus (VH) = test: Spread of Cy3-NPS after microinjection into area CA1 of the VH; type: in vivo, mouse; settings: 0.07 nmol unilaterally into CA1 of VH, 30 min after injection
Protocol: Animals were fixed in a stereotactic frame and maintained under isoflurane anesthesia (Forene® 100%, V/V; induction: 2.5%; maintenance: 1.5%; in O2; flow rate: 1 L/min). The mice received acute analgesic treatment with Metacam s.c. during surgery (0.5 mg/kg; in NaCl). 23 gauge stainless-steel guide cannulas were implanted in the CA1 region of the VH at the following coordinates: 3.1 mm posterior, ±3 mm lateral from bregma, and 2 mm ventral from the skull surface (Franklin and Paxinos, 2007). The guide cannulas were fixed with two screws and a two-component adhesive. For behavioural experiments, animals were implanted bilaterally for later bilateral injection, whereas for Cy3-NPS injections, implantation was performed unilaterally. The animals were allowed to recover for at least 6 days before starting the behavioural experiments. Substance infusions were carried out manually, on mice anesthetised by brief inhalation of isoflurane, using a 30 gauge injection cannula connected to a Tygon tube and a 10 μL Hamilton syringe. After infusion, the injection cannula was kept in place for additional 30 s to prevent substance outflow.
Cy3-NPS was administered unilaterally at a concentration of 0.07 nmol in a volume of 0.7 μL ACSF. […] After mounting with a fluorescence-preserving medium (Shandon Immu-Mount, Thermo Scientific, Bonn, Germany), sections were stored at 4° C.

brain target neurons = settings: mouse, in vivo, 4 h
Protocol: For intranasal application, the anesthetised mice were placed in a supine position, with the head supported at a 450 angle to the body as reported elsewhere (van den Berg et al., 2002). […] The mice were sacrificed at 15 min, 30 min and 4 hrs after the first application.
Brains were removed, post-fixed in 4% formaldehyde and cryoprotected in 20% sucrose, then shock-frozen in methylbutane. Immunohistochemistry was performed on free-floating cryosections (40 μm). The primary antibodies used were specific for neurofilament (1:1000; Abcam, Cambridge, UK) and GFAP (1:250; DAKO, Glostrup, Denmark). The secondary antibodies used were specific for mouse (Alexa 488 goat anti-mouse IgG) and rabbit (Alexa 488 donkey anti-rabbit IgG) (1:300; Invitrogen, Leek, The Netherlands). The sections were counterstained with DAPI (200 ng/ml; Carl Roth, Karlsruhe, Germany) and mounted with a fluorescence-preserving mounting medium (Shandon Immu-Mount, Thermo Scientific, Waltham, Mass., USA).
After acquisition, the images were processed using Photoshop and Illustrator (Adobe, San Jose, Calif., USA).

O=C(NCc1ccc(F)cc1)N1CCN2C(=O)OC(c3ccccc3)(c3ccccc3)[C@H]2C1 [(R)-SHA 68, reference compound]
effect of NPSR antagonist on the NPS effect [1]: completely abolished

corticotropin-releasing hormone (SEEPPISLDLTFHLLREVLEMARAEQLAQQAHSNRKLMEII; ends and bridges not checked; UniProt P06850 154-194, looked up) [corticotropin-releasing hormone (CRH), anxiogenic neuropeptide]
activity flow from the dentate gyrus to area CA1 [2]: enhances this activity flow

Cy3-NPS: fluorescent NPS-conjugate (Cy3-NPS), Phoenix Pharmaceuticals (SFRNGVGTGMKKTSFQRAKS; also: Cy3 label, place not given here; UniProt P0C0P6 70-89, looked up)
cellular fluorescence after ICV injection [3]: single cells already exhibited distinct patterns of fluorescence | co-localisation with neurofilament (NF) and GFAP markers [3]: co-localised exclusively with the neuronal marker | subcellular localisation in target cells [3]: found in the cytosol and throughout the processes of target cells | internalisation in HEK cells transfected with EGFP-NPSR (EGFP-NPSR; 10 min of incubation with Cy3-NPS): the receptor-ligand complex was internalised and subsequently accumulated in cytoplasmic and perinuclear vesicular structures | uptake in HEK cells transfected with empty EGFP-expression plasmid (EGFP-NPSR; control cells without NPSR): did not take up Cy3-NPS molecules | spread of injected Cy3-NPS (ventral hippocampus (VH)): remained locally restricted to the VH and accumulated in single cells of the hippocampal pyramidal, radiate, and oriens layers; also recorded: locally restricted to the site of injection | uptake in nuclei of the amygdala (ventral hippocampus (VH)): not observed | remaining Cy3-NPS after intranasal application (brain target neurons): almost all traces of Cy3-NPS disappeared
